Experiment [1] deals with Brush border membrane vesicle (BBMV) preparation from midguts of third instars of the western corn rootworm (Diabrotica virgifera virgifera LeConte) (Diabrotica virgifera virgifera).
The target is the same in experiment [2]. In words: Homologous competition: unlabeled Cry35Ab1 (0-5,000 nM) against 5 nM 125I-Cry35Ab1 on BBMV (0.1 mg/ml); remaining about 50% considered nonspecific.

B1: Full-length Cry6Aa1 protein (protein)
chain: MIIDSKTTLPRHSLIHTIKLNSNKKYGPGDMTNGNQFIISKQEWATIGAYIQTGLGLPVNEQQLRTHVNLSQDISIPSDFSQLYDVYCSDKTSAEWWNKNLYPLIIKSANDIASYGFKVAGDPSIKKDGYFKKLQDELDNIVDNNSDDDAIAKAIKDFKARCGILIKEAKQYEEAAKNIVTSLDQFLHGDQKKLEGVINIQKRLKEVQTALNQAHGESSPAHKELLEKVKNLKTTLERTIKAEQDLEKKVEYSFLLGPLLGFVVYEILENTAVQHIKNQIDEIKKQLDSAQHDLDRDVKIIGMLNSINTDIDNLYSQGQEAIKVFQKLQGIWATIGAQIENLRTTSLQEVQDSDDADEIQIELEDASDAWLVVAQEARDFTLNAYSTNSRQNLPINVISDSCNCSTTNMTSNQYSNPTTNMTSNQYMISHEYTSLPNNFMLSRNSNLEYKCPENNFMIYWYNNSDWYNNSDWYNN
modifications: 125I-iodinated (Pierce Iodination Beads, Na125I) in the saturation assay; positions not given; unlabeled when used as competitor
In general, Kd refers to the concentration at which binding is half-saturated. Read a high Kd as lower affinity. With B1, in experiment [1], the Kd came to 7.99 nM and the binding site concentration Bmax (pmole/ug BBMV) came out at 2.71.

B2: Chymotrypsin-truncated Cry35Ab1 core protein (protein)
chain: MLDTNKVYEISNHANGLYAATYLSLDDSGVSLMNKNDDDIDDYNLKWFLFPIDDDQYIITSYAANNCKVWNVNNDKINVSTYSSTNSIQKWQIKANGSSYVIQSDNGKVLTAGTGQALGLIRLTDESSNNPNQQWNLTSVQTIQLPQKPIIDTKLKDYPKYSPTGNIDNGTSPQLMGWTLVPCIMVNDPNIDKNTQIKTTPYYILKKYQYWQRAVGSNVALRPHEKKSYTYEWGTEIDQKTTIINTLGFQINIDSGMKFDIPEVGGGTDEIKTQLNEELKIEYSHETKIMEKYQEQSEIDNPTDQSMNSIGFLTITSLELYRYNGSEIRIMQIQTSDNDTYNVTSYPNHQQALL
modifications: 125I-iodinated (Pierce Iodination Beads, Na125I) when used as the labeled ligand; positions not given; unlabeled when used as competitor
On to B2, for which, in experiment [1], the Kd worked out at 11.7 nM and the binding site concentration Bmax (pmole/ug BBMV) worked out at 5.19. The molecule further registered a percent of bound 125I-Cry35Ab1 displaced at approximately 100 nM unlabeled Cry35Ab1 in experiment [2] of more than 50%.

Values taken from patent US20130167269A1.
